Measured values: patent US20250382355A1 (Merck Sharp & Dohme, published 2025)
Numbering of substitutions follows the chain as printed.

B1: 19B8 VHH-Fc (Fc fusion)
chain: QVQLVESGGGLVQAGGSLRLSCAASGRTFTNYAMGWFRQAPGKEREFVAAISWSGGGTNYADSVKGRFTISRDNAKNTVYLQMNSPKPEDTAVYYCATTLGYYGSSSRLYEYWGQGTQVTVSS
B2: 6A1 VHH-Fc (Fc fusion)
chain: QVQLVESGGGLVQAGGSLRLSCTASGNIFSVNVMGWHRQAPGKRRELVAALTNDGRRNYADSVKGRFTISRDNAKNTIYLEMNSLKPEDTAVYYCGTGTLESGFNSWGQGLQVTVSS
B3: 20D11 VHH-Fc (Fc fusion)
chain: QVQLVESGGGLVQAGGSLRLSCAASGRTSSIYSVGWFRQAPGKERELVAGITWSGGTTYYSDSVKGRFTISRDNAKNTVNLQMNNLKPEDTAIYYCAVDRYSMTMSARDYDYWGQGTQVTVSS
B4: 5G11 VHH-Fc (Fc fusion)
chain: B3 chain with S29F, S33A, E46D, L47F, N80Y, R100T, M105L, D109S
B5: 14F3 VHH-Fc (Fc fusion)
chain: B3 chain with S33G, G50L, R72K, N80F, R100T, D111E
B6: 16H7 VHH-Fc (Fc fusion)
chain: QVQLVESGGGLVQAGGSLRLSCAASGRAFSKDTMGWFRQAPGKEREFVAVISASGDSTYYADFVKGRFTISRDNAKNTEYLQMNSLKPEDTAVYHCAADGARAYYSINAHRYSWAYNYWGQGTQVTVSS
B7: 11F5 VHH-Fc (Fc fusion)
chain: QVQLVESGGGAVQAGDSLRLSCTASGRTFSTYAVGWFRQAPGKERELLAAITGSGRNPYYPDSLKGRFTISREYAKLPVYLQMNSLKPEDTAVYYCAARRGAIATMPLDYDHWGQGTQVTVSS
B8: 10B8 VHH-Fc (Fc fusion)
chain: QVQLVESGGGLVQPGGSLRLSCAASGITLDYYAIAWFRQAPGKEREGVSCFCSSDGDIRYADSVKGRFTISRDNAKNTVYLQMNSLKPEDTAVYYCATERVYSSTWFFHRYSELDFGSWGRGTQVTVSS
B9: 19E10 VHH-Fc (Fc fusion)
chain: QVQLVESGGGLVQPGGSLRLSCVASGSTISINSMGWYRQAPGKAREMVATITNDGPIKYADPVKGRFTISRDNPKNTVYLQMNSLKPEDTAVYYCVADRAYWLAGEWEYWGQGTQVTVSS

These binders were tested against T1, Biotinylated CoV2 Spike ECD PreS-AVI protein (SARS-CoV-2, UniProt P0DTC2 14-1208) (assay: Octet binning; competitor 20D11).

Binder	binning response
B1	0.48
B2	0.37
B3	0.04
B4	0.05
B5	0.04
B6	0.56
B7	0.1

These binders were tested against T1, Biotinylated CoV2 Spike ECD PreS-AVI … (assay: Octet binning; competitor 1A11).

Binder	binning response
B8	0.1
B9	0.08

Each binder was assayed against T1, Biotinylated CoV2 Spike ECD PreS-AVI … (assay: Octet binning; competitor 9B2).

Binder	binning response
B8	0.12
B9	0.11

Each binder was assayed against T1, Biotinylated CoV2 Spike ECD PreS-AVI … (assay: Octet binning; competitor 15H1).

Binder	binning response
B8	0.12
B9	0.12

These binders were tested against T1, Biotinylated CoV2 Spike ECD PreS-AVI … (assay: Octet binning; competitor 19B8).

Binder	binning response
B1	0.08
B2	0.4
B3	0.43
B4	0.4
B5	0.46
B6	0.19
B7	0.52

What follows are binders tested against T2, SARS-CoV-2 prefusion-stabilized spike protein (SARS-CoV-2-PreS) (SARS-CoV-2, UniProt P0DTC2 14-1208) (assay: Biacore, apparent affinity).

Binder	Kd
B1	1.1 nM
B8	< 0.2 nM
B2	1.6 nM
B9	< 0.2 nM
B3	< 0.2 nM
B4	1.5 nM
B5	< 0.2 nM
B6	3 nM
B7	< 0.2 nM

Each binder was assayed against T1, Biotinylated CoV2 Spike ECD PreS-AVI … (assay: Octet binning; competitor 7A9).

Binder	binning response
B8	0.42
B9	0.3

The binders below were run against T2, SARS-CoV-2 prefusion-stabilized spike … (assay: ELISA).

Binder	EC50
B1	0.06 nM
B8	1.35 nM
B2	0.44 nM
B9	0.03 nM
B3	0.62 nM
B4	0.4 nM
B5	0.05 nM
B6	0.08 nM
B7	0.12 nM

What follows are binders tested against T1, Biotinylated CoV2 Spike ECD PreS-AVI … (assay: Octet binning; competitor 13C8).

Binder	binning response
B8	0.12
B9	0.11

What follows are binders tested against T1, Biotinylated CoV2 Spike ECD PreS-AVI … (assay: Octet binning; competitor Std-B).

Binder	binning response
B8	0.36
B9	0.22

These binders were tested against T1, Biotinylated CoV2 Spike ECD PreS-AVI … (assay: Octet binning; competitor 8E9).

Binder	binning response
B8	0.09
B9	0.09

Each binder was assayed against T1, Biotinylated CoV2 Spike ECD PreS-AVI … (assay: Octet binning; competitor 15H7).

Binder	binning response
B8	0.12
B9	0.11

What follows are binders tested against T1, Biotinylated CoV2 Spike ECD PreS-AVI … (assay: Octet binning; competitor 11F8).

Binder	binning response
B8	0.1
B9	0.12

What follows are binders tested against T1, Biotinylated CoV2 Spike ECD PreS-AVI … (assay: Octet binning; competitor Std-A).

Binder	binning response
B8	0.39
B9	0.26

These binders were tested against T1, Biotinylated CoV2 Spike ECD PreS-AVI … (assay: Octet binning; competitor Std-D).

Binder	binning response
B8	0.05
B9	0.06

These binders were tested against SARS-CoV-2 Gamma P.1 spike on pseudovirus (SARS-CoV-2) (assay: cell-based or functional assay).

Binder	pseudovirus neutralization IC50
B8	0.21 nM
B9	5.9 nM

Each binder was assayed against SARS-CoV-2 Omicron spike on pseudovirus (SARS-CoV-2) (assay: cell-based or functional assay).

Binder	pseudovirus neutralization IC50
B1	47 nM
B8	4.1 nM
B9	309 nM

These binders were tested against SARS-CoV-2 Beta B.1.351 spike on pseudovirus (SARS-CoV-2) (assay: cell-based or functional assay).

Binder	pseudovirus neutralization IC50
B8	0.23 nM
B9	3.1 nM

The binders below were run against SARS-CoV-2 Alpha B.1.1.7 spike on pseudovirus (SARS-CoV-2) (assay: cell-based or functional assay).

Binder	pseudovirus neutralization IC50
B8	0.38 nM
B9	7 nM
